Experimental data taken from patent US20180111972A1 (Stanford University, published 2018).

Tests used:
[1] = biological target: T1, human VEGFR on human umbilical vein endothelial cells (HUVECs) (human, UniProt P35968 20-1356); assay: flow cytometry on HUVECs, soluble ligand titrated 3 h at 4 C, anti-FLAG-PE
T1 construct: The phosphorylation blots on these cells detect VEGFR2
Procedure: Cells were incubated with various concentrations of hybrid PDGF/VEGF for 3 hours at 4° C. Binding was detected using an R-PE-conjugated anti-FLAG antibody, then analyzed by flow cytometry.

[2] = biological target: T1, human VEGFR on human umbilical vein …; assay: flow cytometry on HUVECs, soluble ligand titrated
[3] = biological target: T1, human VEGFR on human umbilical vein …; assay: cell-based or functional assay

T1 sequence (P35968 20-1356 limits assumed): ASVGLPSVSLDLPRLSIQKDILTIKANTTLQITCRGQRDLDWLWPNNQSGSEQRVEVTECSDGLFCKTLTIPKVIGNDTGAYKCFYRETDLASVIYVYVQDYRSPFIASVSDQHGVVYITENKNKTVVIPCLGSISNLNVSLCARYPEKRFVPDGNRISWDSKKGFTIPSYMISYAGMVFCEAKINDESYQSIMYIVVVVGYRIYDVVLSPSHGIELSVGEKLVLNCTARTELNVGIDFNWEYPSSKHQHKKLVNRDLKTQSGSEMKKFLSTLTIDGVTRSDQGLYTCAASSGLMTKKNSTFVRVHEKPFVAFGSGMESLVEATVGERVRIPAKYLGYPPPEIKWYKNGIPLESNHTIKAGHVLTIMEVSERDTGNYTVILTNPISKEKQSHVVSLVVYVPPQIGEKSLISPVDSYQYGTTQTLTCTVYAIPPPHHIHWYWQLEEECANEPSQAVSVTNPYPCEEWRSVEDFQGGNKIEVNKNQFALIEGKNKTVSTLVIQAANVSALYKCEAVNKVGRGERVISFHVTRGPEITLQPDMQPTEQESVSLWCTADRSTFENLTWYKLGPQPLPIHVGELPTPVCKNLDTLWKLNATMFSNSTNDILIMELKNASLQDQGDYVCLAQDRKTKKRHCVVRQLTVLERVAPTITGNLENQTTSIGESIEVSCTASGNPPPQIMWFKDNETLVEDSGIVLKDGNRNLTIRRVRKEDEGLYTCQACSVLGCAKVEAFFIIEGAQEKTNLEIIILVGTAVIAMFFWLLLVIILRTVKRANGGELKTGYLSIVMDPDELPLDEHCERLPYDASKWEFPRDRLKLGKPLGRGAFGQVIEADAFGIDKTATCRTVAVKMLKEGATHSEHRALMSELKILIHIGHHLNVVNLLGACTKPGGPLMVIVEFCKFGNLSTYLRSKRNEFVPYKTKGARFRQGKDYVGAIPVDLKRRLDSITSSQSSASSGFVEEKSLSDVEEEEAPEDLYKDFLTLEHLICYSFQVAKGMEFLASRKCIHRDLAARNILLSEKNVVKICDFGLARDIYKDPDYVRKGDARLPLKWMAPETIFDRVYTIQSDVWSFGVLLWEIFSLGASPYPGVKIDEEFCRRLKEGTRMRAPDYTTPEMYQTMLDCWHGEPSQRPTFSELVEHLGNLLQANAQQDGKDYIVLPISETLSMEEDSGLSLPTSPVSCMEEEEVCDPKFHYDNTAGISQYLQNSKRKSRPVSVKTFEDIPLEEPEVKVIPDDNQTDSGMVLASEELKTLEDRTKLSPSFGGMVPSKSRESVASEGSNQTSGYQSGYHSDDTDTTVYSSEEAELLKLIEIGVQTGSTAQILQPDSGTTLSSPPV

Binder	Kd [1]	fold improvement over the bivalent scVEGFwt [2]	IC50 of inhibition of HUVEC proliferation induced by 0.5 nM VEGF165, alamarBlue [3]
PVAM-S (PV R32A), soluble, FLAG and hexahistidine tags (designed binder, Secreted from S. cerevisiae YVH10 and treated with Endo Hf) DYKDDDDKIAEPAMIAECHPIETLVDILQEYPDEIGYIFKPSCVPLMRCGGCCNNRNVQCRPTEESNITMQIMRIKPHRGQHIGEMSFLQHNKCRCETVAAGSTSGSGKSSEGKGEVVKFMDVYQRSYCKTRTEVFEISRRLIDATNANFLVWPPCVEVQRCSGCCNHEGLECVPTQVQLRPVQVRKIEFVRKKPIFKKATVTLEDHLACECRPKKDHHHHHH	0.2 nM	7.5 fold	
PV6 PDGF/VEGF chimera, soluble, N-terminal FLAG and C-terminal hexahistidine tags (designed binder, Secreted from S. cerevisiae YVH10 and treated with Endo Hf; also called soluble PV6) DYKDDDDKIAEPAMIAECHPIETLVDIFQEYPDEIEYIFKPSCVPLMRCGGCCNNRNVQCRPTEESNITMQIMRIKPHQGQHIGEMSFLQHNKCKCETVAAGSTSGSGKSSEGKGEVVKFMDVYQRSYCKTRTEVFEISRRLIDRTNANFLVWPPCVEVQRCSGCCNDEGLECVPTQVQLRPVQVRKIEIVRKKPIFKKATVTLEDHLACKCRPKKDHHHHHH			110 nM
